{
  "source": "patent US7709606B2",
  "about": "“Interacting polypeptide comprising a heptapeptide pattern and a cellular penetration domain” (Ecole Normale Superieure de Lyon, priority 2003, dated 2010)",
  "key": {"[1]": {"test_system": "Jurkat cells", "test": "intracellular entry, immunofluorescence in Jurkat cells", "assay_type": "cell-based", "conditions": "2 μM for one hour, analyzed 24 h later", "method": "Light transmission and fluorescence images are shown for representative cells.\nThe immunofluorescence tests were carried out with a primary anti-FLAG antibody in a dilution of 1:500 incubated for 2 hours and a secondary antibody coupled to the Alexa Fluor 488 fluorophore (Molecular Probes) diluted 1:1000, incubated for one hour.\nTo confirm that SHPs do indeed enter the cell, immunofluorescence analyses were also carried out. Jurkat cells were incubated with 1 μM of SHP for 4 hours and after washing twice, the cells were cultured for 24 hours."}, "[2]": {"test_system": "HIV-1-LA1", "test": "antiviral test in PHA-P activated PBMC, RT activity", "assay_type": "cell-based", "conditions": "for Percentage inhibition, Mean: HIV-1 LA1, day 7", "method": "(§1) These viruses were amplified in vitro with umbilical blood mononuclear cells (UBMC) activated with PHA-P. The cell-free supernatant was centrifuged at […] for 10 minutes to eliminate soluble factors, and the residue was re-suspended in cell culture medium. Virus stocks were titrated using PBMC cells activated with PHA-P and 50% tissue culture infectious doses (TCID50) were calculated using Kärber's formula.\nPBMC cells were pre-treated for 30 minutes by 5 concentrations of each molecule and infected with 75 TCID50 of the HIV-1-LA1 strain. AZT (1.6, 8, 40, 200 and 1000 nM) and indinavir (1.6, 8, 40, 200 and 1000 nM) were used as the control. […] The molecules were maintained throughout culture, and the cellular supernatant was harvested 7 days post infection and stored at −20° C. to measure viral replication by reverse transcriptase activity (RT) assay.\n(§2) HIV replication was analyzed by assaying the RT activity in the supernatants from cell cultures using the RetroSys RT kit (Innovagen). The experiments were carried out 3 times and the results are expressed as the mean of the RT activity±the standard deviation (SD).\nIn a last step, it was examined whether SHPs were actually capable of inhibiting HIV-1 replication. This was carried out in PBMCs activated by PHA-P and in MDMs. […] The effects of different SHPs was thus tested at this time. AZT and indinavir were used as controls."}, "[3]": {"test_system": "HIV-1/Ba-L", "test": "antiviral test in monocyte-derived macrophages (MDM), RT activity", "assay_type": "cell-based", "conditions": "for Percentage inhibition, Mean: MDMs, HIV-1/Ba-L", "method": "as §1\nThe MDM cells were pre-treated for 30 minutes in 6 concentrations of different molecules and infected with 30000 TCID50 of the HIV-1/Ba-L strain. AZT (0.8, 4, 20, 100 and 500 nM) and indinavir (0.8, 4, 20, 100 and 500 nM) were used as the control. […] The molecules were maintained for 7 days post infection, and the cellular supernatant was harvested 7, 14 and 21 days post infection and stored at −20° C. to measure viral replication by reverse transcriptase activity (RT) assay.\nas §2"}, "[4]": {"target": "LexNES (NES of Rev) (Human immunodeficiency virus type 1 group M subtype B, UniProt P04618)", "sequence (P04618 70-96)": "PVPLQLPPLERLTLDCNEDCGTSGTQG", "conditions": "in words; method not stated"}, "[5]": {"target": "Rev (Human immunodeficiency virus type 1 group M subtype B, UniProt P04618)", "conditions": "HeLa cells", "description": "This type of indicative construct allowed an evaluation of the effect of Rev, which by causing transport towards the cytoplasm of the non spliced RNA, allowed expression of the CAT enzyme.\nThe CAT activity was measured using the CAT ELISA kit (Roche).\nThe SHPR activity was evaluated using the reporter construct pDM128 which included the coding sequence CAT and an RRE motif in an intron. Expression of Rev stimulated expression of CAT allowing an unspliced messenger to be exported to the cytoplasm.\nThese various mutants were tested using a transitory expression system consisting of transfecting HeLa cells of the reporter plasmid having the CAT sequence associated with the RRE in the intronic position with expression vectors for the Rev protein and the SHPR protein. […] The separation between the two values was less than 20%.\nThese vectors were transfected with the reporter plasmid pDM128 and the expression vector Rev as described in the above sections (and in Roisin et al, JBC (2004) 279: 9208). The quantity of CAT protein is expressed as a % of that corresponding to transfection of parental SHPR. A value of more than 100 thus indicates a negative effect on the inhibiting power of SHPR and a lower value indicates an increase in this inhibiting property."}, "[6]": {"target": "Rev/RRE association (Human immunodeficiency virus type 1 group M subtype B, UniProt P04618)", "conditions": "Rev produced in bacteria, RRE RNA probe", "description": "To this end, gel retard experiments were carried out with a RNA molecule corresponding to the RRE element as the probe. The Rev protein produced in bacteria binds to this RNA and induces a non denaturing polyacrylamide gel migration retardation."}},
  "data": [
    {"molecule": "SHPR-142: SUMO-1-heptapeptide-Tat PTD protein against Rev; heptapeptide Phe Trp Phe Cys Gly Leu Lys (SEQ ID NO: 2) (protein, left off: small tags and cut ends) MSDQEAKPSTEDLGDKKEGEYIKLKVIGQDSSEIHFKVKMTTHLKKLKESYCQRQGVPMNSLRFLFEGQRIADNHTPKELGMEEEDVIEVYQEQTARPPNPKKEIELGGGGSFWFCGLKPGRKKRRQRRRG", "values": [
      {"measurement": "immunofluorescence with antibody against FLAG", "setting": "[1]", "value": "diffuse fluorescence"},
      {"measurement": "anti-HIV activity, replication of HIV-1-LA1", "setting": "[2]; PBMC activated by PHA-P, 7th day, in words", "value": "reduced replication"},
      {"measurement": "reduction of HIV-1 replication", "setting": "[2]; PBMC activated with PHA-P, 2 μM", "value": "73±6", "unit": "%"},
      {"measurement": "ED70", "setting": "[2]; PBMCs, HIV-1-LA1, 7th day", "value": 2.1, "unit": "µM"},
      {"measurement": "ED90", "setting": "[2]; PBMCs, HIV-1-LA1, 7th day", "value": 4.6, "unit": "µM"},
      {"measurement": "Percentage inhibition, Mean", "setting": "[2]; PBMCs, Dose 31 (nM)", "value": 0, "unit": "%"},
      {"measurement": "Percentage inhibition, Mean", "setting": "[2]; PBMCs, Dose 62.5 (nM)", "value": 0, "unit": "%"},
      {"measurement": "Percentage inhibition, Mean", "setting": "[2]; PBMCs, Dose 125 (nM)", "value": 0, "unit": "%"},
      {"measurement": "Percentage inhibition, Mean", "setting": "[2]; PBMCs, Dose 250 (nM)", "value": 0, "unit": "%"},
      {"measurement": "Percentage inhibition, Mean", "setting": "[2]; PBMCs, Dose 500 (nM)", "value": 19, "unit": "%"},
      {"measurement": "Percentage inhibition, Mean", "setting": "[2]; PBMCs, Dose 1000 (nM)", "value": 26, "unit": "%"},
      {"measurement": "Percentage inhibition, Mean", "setting": "[2]; PBMCs, Dose 2000 (nM)", "value": 73, "unit": "%"},
      {"measurement": "inhibition of HIV replication", "setting": "[3]; MDM, 1 μM", "value": "not effect"},
      {"measurement": "inhibition of HIV replication", "setting": "[3]; MDM, 2 μM on day 14", "value": "44±10", "unit": "%"},
      {"measurement": "anti-HIV activity, HIV-1/Ba-L replication", "setting": "[3]; MDM, in words", "value": "slight inhibition of HIV replication"},
      {"measurement": "Percentage inhibition, Mean", "setting": "[3]; Day 7, dose 62.5 (nM)", "value": 0, "unit": "%"},
      {"measurement": "Percentage inhibition, Mean", "setting": "[3]; Day 7, dose 125 (nM)", "value": 0, "unit": "%"},
      {"measurement": "Percentage inhibition, Mean", "setting": "[3]; Day 7, dose 250 (nM)", "value": 0, "unit": "%"},
      {"measurement": "Percentage inhibition, Mean", "setting": "[3]; Day 7, dose 500 (nM)", "value": 0, "unit": "%"},
      {"measurement": "Percentage inhibition, Mean", "setting": "[3]; Day 7, dose 1000 (nM)", "value": 3, "unit": "%"},
      {"measurement": "Percentage inhibition, Mean", "setting": "[3]; Day 7, dose 2000 (nM)", "value": 35, "unit": "%"},
      {"measurement": "Percentage inhibition, Mean", "setting": "[3]; Day 14, dose 62.5 (nM)", "value": 0, "unit": "%"},
      {"measurement": "Percentage inhibition, Mean", "setting": "[3]; Day 14, dose 125 (nM)", "value": 0, "unit": "%"},
      {"measurement": "Percentage inhibition, Mean", "setting": "[3]; Day 14, dose 250 (nM)", "value": 0, "unit": "%"},
      {"measurement": "Percentage inhibition, Mean", "setting": "[3]; Day 14, dose 500 (nM)", "value": 0, "unit": "%"},
      {"measurement": "Percentage inhibition, Mean", "setting": "[3]; Day 14, dose 1000 (nM)", "value": 0, "unit": "%"},
      {"measurement": "Percentage inhibition, Mean", "setting": "[3]; Day 14, dose 2000 (nM)", "value": 44, "unit": "%"},
      {"measurement": "Percentage inhibition, Mean", "setting": "[3]; Day 21, dose 62.5 (nM)", "value": 0, "unit": "%"},
      {"measurement": "Percentage inhibition, Mean", "setting": "[3]; Day 21, dose 125 (nM)", "value": 0, "unit": "%"},
      {"measurement": "Percentage inhibition, Mean", "setting": "[3]; Day 21, dose 250 (nM)", "value": 0, "unit": "%"},
      {"measurement": "Percentage inhibition, Mean", "setting": "[3]; Day 21, dose 500 (nM)", "value": 0, "unit": "%"},
      {"measurement": "Percentage inhibition, Mean", "setting": "[3]; Day 21, dose 1000 (nM)", "value": 0, "unit": "%"},
      {"measurement": "Percentage inhibition, Mean", "setting": "[3]; Day 21, dose 2000 (nM)", "value": 18, "unit": "%"},
      {"measurement": "interaction with the NES signal of Rev", "setting": "[4]", "value": "interacts with Rev NES"},
      {"measurement": "inhibition of the function of Rev (CAT from pDM128)", "setting": "[5]", "value": "effective inhibitors of the function of Rev"},
      {"measurement": "effect on Rev/RRE association (gel retardation)", "setting": "[6]", "value": "did not inhibit this association"}
    ]}
  ]
}
